Results from article PMC10366545, “Phosphoregulation of DNA repair via the Rad51 auxiliary factor Swi5–Sfr1” (The Journal of Biological Chemistry, 2023).
Changes are numbered by the printed parent chain.

T1: Swi5-Sfr1 (S5S1) wild type (Schizosaccharomyces pombe, UniProt Q9UUB7;Q9USV1 1-85;1-299)
T1 sequence 1: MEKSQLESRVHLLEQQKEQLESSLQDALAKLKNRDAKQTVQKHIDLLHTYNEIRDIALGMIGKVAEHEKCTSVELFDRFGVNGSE
T1 sequence 2: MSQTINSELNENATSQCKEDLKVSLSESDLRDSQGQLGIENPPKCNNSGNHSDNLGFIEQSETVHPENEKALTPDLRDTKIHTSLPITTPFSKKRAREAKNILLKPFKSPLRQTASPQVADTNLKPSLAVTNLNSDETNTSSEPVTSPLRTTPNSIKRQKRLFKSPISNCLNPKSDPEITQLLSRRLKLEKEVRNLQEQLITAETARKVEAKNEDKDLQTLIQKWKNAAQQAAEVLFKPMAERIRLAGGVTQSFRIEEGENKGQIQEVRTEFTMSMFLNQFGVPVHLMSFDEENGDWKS

T2: Rad51;Swi5-Sfr1 (S5S1) wild type (Schizosaccharomyces …, UniProt P36601;Q9UUB7;Q9USV1 1-365;1-85;1-299, |)
T2 sequence 1: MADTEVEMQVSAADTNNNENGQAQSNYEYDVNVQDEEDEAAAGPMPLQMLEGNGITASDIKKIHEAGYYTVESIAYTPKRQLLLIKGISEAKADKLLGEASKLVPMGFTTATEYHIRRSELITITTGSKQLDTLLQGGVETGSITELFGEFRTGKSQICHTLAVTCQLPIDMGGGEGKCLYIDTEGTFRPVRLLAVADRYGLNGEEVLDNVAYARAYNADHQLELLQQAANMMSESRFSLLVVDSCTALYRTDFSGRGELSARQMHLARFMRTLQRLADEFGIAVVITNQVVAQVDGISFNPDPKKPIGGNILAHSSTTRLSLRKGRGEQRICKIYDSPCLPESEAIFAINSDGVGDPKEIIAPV
T2 sequence 2: T1 sequence 1
T2 sequence 3: T1 sequence 2

T3: Rad51 (Schizosaccharomyces pombe, UniProt P36601 1-365)
T3 sequence: T2 sequence 1

T4: Swi5–Sfr1 nonphosphorylatable mutant complex (S5S1-NON) (S. pombe, UniProt Q9USV1 1-299; Q9UUB7 1-85, S24 to A | T73 to A | S109 to A | S116 to A | S165 to A)
T4 construct: Sfr1, S. pombe, five S/T phosphosites (S24, T73, S109, S116, S165) mutated to A; Swi5, S. pombe; source: E. coli BL21 DE3 (pRARE2), Sfr1 co-expressed with Swi5 from pET11b, purified (His-tag column, HiTrap Q, Superdex 200); not shown: His6, N-terminal, kept
T4 sequence (looked up) 1: T1 sequence 2 with S24A, T73A, S109A, S116A, S165A
T4 sequence (looked up) 2: T1 sequence 1

T5: Swi5–Sfr1 complex (wildtype, hexahistidine-tagged Sfr1) (S. pombe, UniProt Q9USV1 1-299; Q9UUB7 1-85)
T5 construct: Sfr1, S. pombe; Swi5, S. pombe; Made in E. coli, so it serves as the unphosphorylated sample; also called S5S1; wildtype S5S1; source: E. coli BL21 DE3 (pRARE2), Sfr1 co-expressed with Swi5 from pET11b, purified (His-tag column, HiTrap Q, Superdex 200); not shown: His6, N-terminal, kept
T5 sequence (looked up) 1: T1 sequence 2
T5 sequence (looked up) 2: T1 sequence 1

B1: BA663 80-mer ssDNA (ssDNA)
DNA: TTGATAAGAGGTCATTTTTGCGGATGGCTTAGAGCTTAATTGCTGAATCTGGTGCTGTAGCTCAACATGTTTTAAATATG
B2: BA663/BA664 80-bp dsDNA (dsDNA)
DNA 1: B1 DNA
DNA 2: CATATTTAAAACATGTTGAGCTACAGCACCAGATTCAGCAATTAAGCTCTAAGCCATCCGCAAAAATGACCTCTTATCAA
B3: Swi5–Sfr1 phosphomimetic mutant complex (S5S1-PM) (complex, S. pombe)
chain 1: T1 sequence 2 with S24D, T73D, S109D, S116D, S165D
chain 2: T1 sequence 1
notes: Sfr1, S. pombe, five S/T phosphosites (S24, T73, S109, S116, S165) mutated to D; Swi5, S. pombe; source: E. coli BL21 DE3 (pRARE2), Sfr1 co-expressed with Swi5 from pET11b, purified (His-tag column, HiTrap Q, Superdex 200); not shown: His6, N-terminal, kept
B4: BA655 100-mer ssDNA (ssDNA)
DNA: ATAAGGCCACGTATTTTGCAAGCTATTTAACTGGCGGCGATTGCGTACCCGACGACCAAAATTAGGGTCAACGCTACCTGTAGGAAGTGTCCGCATAAAG
B5: Rad51 (natural protein, S. pombe, UniProt P36601 1-365, looked up)
chain: T2 sequence 1
notes: Rad51 recombinase, S. pombe; also called S. pombe Rad51; Rad51-ssDNA filament
B6: BA494 116-mer ssDNA (ssDNA)
DNA: TTCAATATCTGGTTGAACGGCGTCGCGTCGTAACCCAGCTTGGTAAGTTGGATTAAGCACTCCGTGGACAGATTTGTCATTGTGAGCATTTTCATCCCGAAGTTGCGGCTCATTCT

Assays:
[1] = biological target: T1, Swi5-Sfr1 (S5S1) wild type; assay: EMSA; 3.5 mM Mg2+; EMSA: 25 mM Hepes-KOH pH 7.5, 100 mM KCl, 3.5 mM MgCl2, 0.5 mM TCEP, 5% glycerol, 20 nM DNA, 37 C 15 min, 0.8% agarose in TAE at 4 C; pull-down: 25 mM Tris-Cl pH 7.5, 100 mM NaCl, 2 mM ATP, 5 mM MgCl2, 37 C; settings: protein: recombinant, tags: N-terminal His6 on Sfr1, copies: 1;1
Rad51 [2] = biological target: B5; assay: pull-down; filament binding assay: Rad51 (3.33 μM) filaments on circular ssDNA (10 μMnt) held on streptavidin beads through a biotinylated oligonucleotide; 3.33 μM S5S1 added, 5 min 37 °C; 25 mM Tris-Cl 7.5, 100 mM NaCl, 3.5 mM MgCl2, 2 mM ATP, 0.5 mM TCEP, 5% glycerol, 0.05% Tween-20; Sfr1 signal normalised to Rad51, relative to wildtype, n = 3; settings: both partners purified
[3] = biological target: T2, Rad51;Swi5-Sfr1 (S5S1) wild type; assay: streptavidin pull-down; ATP, Mg2+, Fbh1-Skp1; S5S1 antagonizes disruption; EMSA: 25 mM Hepes-KOH pH 7.5, 100 mM KCl, 3.5 mM MgCl2, 0.5 mM TCEP, 5% glycerol, 20 nM DNA, 37 C 15 min, 0.8% agarose in TAE at 4 C; pull-down: 25 mM Tris-Cl pH 7.5, 100 mM NaCl, 2 mM ATP, 5 mM MgCl2, 37 C; settings: protein: recombinant;recombinant; tags: ;N-terminal His6 on Sfr1; label: 5' biotin
Rad51 [4] = biological target: T3, Rad51; assay: streptavidin pull-down; 2 mM ATP, 5 mM Mg2+; EMSA: 25 mM Hepes-KOH pH 7.5, 100 mM KCl, 3.5 mM MgCl2, 0.5 mM TCEP, 5% glycerol, 20 nM DNA, 37 C 15 min, 0.8% agarose in TAE at 4 C; pull-down: 25 mM Tris-Cl pH 7.5, 100 mM NaCl, 2 mM ATP, 5 mM MgCl2, 37 C; settings: protein: recombinant; label: 5' biotin
[5] = biological target: T4, Swi5–Sfr1 nonphosphorylatable mutant …; assay: pull-down; in solution; nickel resin holds hexahistidine-tagged S5S1; 500 nM each protein; 30 mM Tris-Cl 7.5, 100 mM KCl, 5 mM MgCl2, 1 mM ATP, 0.25 mM TCEP, 5% glycerol, 0.05% Tween-20; 30 °C 15 min, then resin 1 h at 4 °C; SDS-PAGE, Coomassie; settings: both partners purified
[6] = biological target: T5, Swi5–Sfr1 complex (wildtype, …); assay: as above; settings: both partners purified
[7] = biological target: T2, Rad51;Swi5-Sfr1 (S5S1) wild type; assay: negative-stain EM; 2 mM ATP, 5 mM Mg2+; longer filaments; EMSA: 25 mM Hepes-KOH pH 7.5, 100 mM KCl, 3.5 mM MgCl2, 0.5 mM TCEP, 5% glycerol, 20 nM DNA, 37 C 15 min, 0.8% agarose in TAE at 4 C; pull-down: 25 mM Tris-Cl pH 7.5, 100 mM NaCl, 2 mM ATP, 5 mM MgCl2, 37 C; settings: protein: recombinant;recombinant; tags: ;N-terminal His6 on Sfr1
Rad51 [8] = biological target: T3, Rad51; assay: negative-stain EM; 2 mM ATP, 5 mM Mg2+; EMSA: 25 mM Hepes-KOH pH 7.5, 100 mM KCl, 3.5 mM MgCl2, 0.5 mM TCEP, 5% glycerol, 20 nM DNA, 37 C 15 min, 0.8% agarose in TAE at 4 C; pull-down: 25 mM Tris-Cl pH 7.5, 100 mM NaCl, 2 mM ATP, 5 mM MgCl2, 37 C; settings: protein: recombinant

Binder: B1
binding result ([1]; label: 3' Cy5): binds

Binder: B2
binding result ([1]; label: 3' Cy5 on BA663, blunt): binds

Binder: B3
fold reduction in coprecipitation with Rad51 filaments against wildtype S5S1 (Rad51 [2]): ~5 fold

Binder: B4
binding result [3]: binds | binding result (Rad51 [4]): binds

Binder: B5
binding result [5]: binds | binding result [6]: binds

Binder: B6
binding result [7]: binds | binding result (Rad51 [8]): binds
